Literature values, collected in article PMC4246237.
Like-named read-outs stand apart in the source and are kept apart here.

Tests used:
AVP (Human adenovirus 2) [1] = target: AVP (Human adenovirus 2) (UniProt P03252)
AVP (Human adenovirus 2) [2] = target: AVP (Human adenovirus 2) (UniProt P03252); remark: listed apart in the source

Sequence of UniProt P03252 (P03252 whole entry): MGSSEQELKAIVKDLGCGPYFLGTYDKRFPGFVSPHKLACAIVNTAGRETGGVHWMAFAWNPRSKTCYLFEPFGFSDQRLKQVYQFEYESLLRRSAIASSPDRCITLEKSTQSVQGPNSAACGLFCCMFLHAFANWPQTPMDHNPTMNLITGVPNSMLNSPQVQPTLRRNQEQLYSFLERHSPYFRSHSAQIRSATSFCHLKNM

pVIc pVIc (from UniProt P03274)
Kd (AVP (Human adenovirus 2) [1]): 4400 nM
Kd (AVP (Human adenovirus 2) [2]): 90 nM
